Experiment [1] has as its target 遺伝子型3aの単離物のE1E2. Put plainly: cell-based or functional assay.
Experiment [2] addresses 遺伝子型5の単離物のE1E2(MAb AP33反応性). Put plainly: cell-based or functional assay.
In experiment [3] the target is H77 E1E2突然変異型G418A (Hepatitis C virus genotype 1a, strain H77) (UniProt P27958). Put plainly: GNA capture EIA, mutant E1E2 from HEK293T cells.
Experiment [4] addresses H77 E1E2突然変異型L413A (Hepatitis C virus genotype 1a, strain H77) (UniProt P27958). Kind of experiment: GNA capture EIA, mutant E1E2 from HEK293T cells.
Experiment [5] deals with H77 E1E2突然変異型N415A (Hepatitis C virus genotype 1a, strain H77) (UniProt P27958). Kind of experiment: GNA capture EIA, mutant E1E2 from HEK293T cells.
Experiment [6] deals with H77 E1E2突然変異型Q412A (Hepatitis C virus genotype 1a, strain H77) (UniProt P27958). Kind of experiment: GNA capture EIA, mutant E1E2 from HEK293T cells.
Experiment [7] concerns the target H77 E1E2突然変異型W420A (Hepatitis C virus genotype 1a, strain H77) (UniProt P27958). Put plainly: GNA capture EIA, mutant E1E2 from HEK293T cells.
Experiment [8] deals with 412〜423分枝ペプチド (Hepatitis C virus). Kind of experiment: antibody titration on the 412-423 branched peptide (Figure 10).

Turning to モノクローナル抗体AP33 (antibody), the results for the IC 50(HCV pp 中和) in experiment [1] and in experiment [2] were 22 µg/mL and 0.6 µg/mL, respectively. In addition, the decrease of binding compared with wild type in experiment [3], in experiment [4], in experiment [5] and in experiment [7] was more than 75% each time. The increase of binding compared with wild type H77 in experiment [6] came out at 50%. In addition, the concentration for 50% binding, how much lower than that of MAb 3/11 in experiment [8] was more than 10.

These data come from patent publication JP2013230152A.
